Test results: US20080248502A1 (EISAI R AND D MANAGEMENT, published 2008)
Values belong to the binder of their own block, whether it stands above or below them.

Experiments:
[1] = molecular target: T1, human CARL-AP chimeric protein (extracellular region of human CARL linked with human secretory placental … (human, UniProt P05187 23-511)); assay: adhesion of human CAR-expressing B300 cells to immobilized human CARL-AP
T1 construct: also called human CARL-AP chimeric proteins

[2] = molecular target: T2, CAR-AP chimeric protein (extracellular region of mouse CAR linked with human secretory placental alkaline … (mouse; human, UniProt P97792 20-237; P05187 23-511); assay: adhesion of transfected B300 cells to immobilized CAR-AP
T2 construct: Secreted from 293/EBNA-1 cells; also called CAR-AP chimeric proteins; immobilized CAR
T2 sequence (P97792 other isoform, or with tags, fused parts or gaps mutant): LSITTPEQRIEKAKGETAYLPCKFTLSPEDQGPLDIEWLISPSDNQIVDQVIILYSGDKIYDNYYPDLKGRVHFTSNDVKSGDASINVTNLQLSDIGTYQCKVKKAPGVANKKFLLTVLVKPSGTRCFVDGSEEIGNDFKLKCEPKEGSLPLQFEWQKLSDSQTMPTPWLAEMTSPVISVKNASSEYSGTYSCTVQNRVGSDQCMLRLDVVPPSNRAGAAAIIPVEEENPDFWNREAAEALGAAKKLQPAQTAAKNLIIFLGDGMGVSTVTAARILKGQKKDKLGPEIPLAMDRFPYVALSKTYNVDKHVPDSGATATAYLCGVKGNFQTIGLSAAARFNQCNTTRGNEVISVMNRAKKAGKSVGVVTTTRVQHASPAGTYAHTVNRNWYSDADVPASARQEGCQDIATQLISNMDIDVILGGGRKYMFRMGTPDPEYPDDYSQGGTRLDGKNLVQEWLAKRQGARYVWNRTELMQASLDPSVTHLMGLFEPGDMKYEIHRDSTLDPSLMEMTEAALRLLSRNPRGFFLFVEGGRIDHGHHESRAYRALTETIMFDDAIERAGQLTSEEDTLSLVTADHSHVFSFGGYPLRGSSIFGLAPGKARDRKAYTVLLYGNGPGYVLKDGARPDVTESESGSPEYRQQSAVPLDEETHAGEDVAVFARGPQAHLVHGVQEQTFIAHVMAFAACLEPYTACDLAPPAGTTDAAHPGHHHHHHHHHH

[3] = molecular target: T2, CAR-AP chimeric protein (extracellular …); assay: adhesion of CARL-expressing B300 cells to immobilized AP chimeric proteins
[4] = molecular target: T3, CARL-AP chimeric protein (extracellular region of mouse CARL linked with human secretory placental alkaline … (mouse; human, UniProt P05187 23-511); assay: adhesion of B300/CARL cells to immobilized AP chimeric proteins (method of Example 4, proteins applied at 10 nM)
T3 construct: also called CARL-AP proteins; chimeric protein of ENSMUSG0000048534 with AP
Description: Cell adhesion experiments were carried out using AP chimeric proteins to identify molecules functioning as adhesion molecules that adhere to lymphocytes. First, 50 μl of 10 μg/ml anti-alkaline phosphatase antibody (Seradyn MIA1802) was added to 96 well ELISA plates (Nunc), and allowed to stand at 37° C. for 30 minutes to immobilize the antibody. After washing the plates with PBS, the non-specifically binding sites were blocked with BlockAce (Dainippon Pharmaceutical Co.). AP chimeric proteins were diluted to a final concentration of 10 nM, added to the wells, and allowed to stand at room temperature for 30 minutes to immobilize the proteins. Activated lymphocytes were suspended in cell adhesion buffer (RPMI 1640, 0.5% BSA, and 20 mM HEPES (pH 7.4)), fluorescently labeled with Calcein-AM (Dojin), then added to wells at 1×10⁵ cells/well, and incubated at 37° C. for one hour. The non-adherent cells were washed away. A cell lysis solution (10 mM TrisHCl (pH 8.0), 1% TritonX-100) was added, then adherent cells were quantified using Wallac ARVO SX 1420 MULTILABEL COUNTER (Perkin Elmer) and measuring at an excitation wavelength of 485 nm and detection wavelength of 535 nm. The degree of cell adhesion was represented as a percentage ratio of adherent cells to added cells. […]

[5] = molecular target: T4, human CAR-AP chimeric protein (extracellular region of human CAR linked with human secretory placental … (human, UniProt P78310 20-237; P05187 23-511); assay: cell surface binding of human CAR-AP to transfected B300 cells
T4 construct: also called human CAR-AP chimeric proteins

[6] = molecular target: T2, CAR-AP chimeric protein (extracellular …); assay: SPR (BIAcore X): CAR-AP captured by anti-alkaline phosphatase antibody on CM5 chip, CARL-Fc supernatant at 20, 6 or 0.6 nM
Description: Then, a culture supernatant comprising CAR-AP chimeric protein or control AP chimeric protein diluted to 20 nM with HBS-EP buffer (BIAcore) was added to immobilize 500 RU of AP chimeric proteins onto the sensor chip. The protein-protein interactions were measured by adding culture supernatants comprising CARL-Fc chimeric proteins diluted to 20 nM, 6 nM, or 0.6 nM with HBS-EP buffer (BIAcore) at 20 μl/min for 210 seconds.

binding result [1]: binds
B1: human CAR, full length, expressed on B300 cells (receptor, UniProt P78310 20-365, looked up)
chain: LSITTPEEMIEKAKGETAYLPCKFTLSPEDQGPLDIEWLISPADNQKVDQVIILYSGDKIYDDYYPDLKGRVHFTSNDLKSGDASINVTNLQLSDIGTYQCKVKKAPGVANKKIHLVVLVKPSGARCYVDGSEEIGSDFKIKCEPKEGSLPLQYEWQKLSDSQKMPTSWLAEMTSSVISVKNASSEYSGTYSCTVRNRVGSDQCLLRLNVVPPSNKAGLIAGAIIGTLLALALIGLIIFCCRKKRREEKYEKEVHHDIREDVPPPKSRTSTARSYIGSNHSSLGSMSPSNMEGYSKTQYNQVPSEDFERTPQSPTLPPAKVAAPNLSRMGAIPVMIPAQSKDGSIV
notes: whole, on cells; also called human CAR-expressing B300 cells

binding result [2]: binds
B2: domain 2-lacking CARL (positions 21 to 139 and 255 to 379) with FLAG tag, expressed on B300 cells (ligand)
chain: QGLPGLTVSSPQLRVHVGESVLMGCVVQRTEEKHVDRVDWLFSKDKDDASEYVLFYYSNLSVPTGRFQNRSHLVGDTFHNDGSLLLQDVQKADEGIYTCEIRLKNESMVMKKPVELWVLQDEFQRTISPTPPTDKGQQGILNGNQLVIIVGIVCATFLLLPVLILIVKKAKWNKSSVSSMASVKSLENKEKINPEKHIYSSITTWETTERGISGESEGTYMTMNPVWPSSPKASSLVRSSVRSK
notes: On cells; also called B300 cells expressing CARL lacking domain 2; not shown: FLAG tag from vector pMX ssFLAG MCS2.2 IRES Puro

binding result [3]: binds
binding result [4]: no binding
B3: mouse CARL (CAR ligand; ENSMUSG0000048534), full length, on cells (ligand)
chain: QGLPGLTVSSPQLRVHVGESVLMGCVVQRTEEKHVDRVDWLFSKDKDDASEYVLFYYSNLSVPTGRFQNRSHLVGDTFHNDGSLLLQDVQKADEGIYTCEIRLKNESMVMKKPVELWVLPEEPKDLRVRVGDTTQMRCSIQSTEEKRVTKVNWMFSSGSHTEEETVLSYDSNMRSGKFQSLGRFRNRVDLTGDISRNDGSIKLQTVKESDRGIYTCSIYVGKLESRKTIVLHVVQDEFQRTISPTPPTDKGQQGILNGNQLVIIVGIVCATFLLLPVLILIVKKAKWNKSSVSSMASVKSLENKEKINPEKHIYSSITTWETTERGISGESEGTYMTMNPVWPSSPKASSLVRSSVRSK
notes: also called CARL-expressing B300 cells; similar to AMICA (BC050133)

binding result [2]: binds
B4: full-length CARL (positions 21 to 379) with vector signal sequence and FLAG tag, expressed on B300 cells (ligand)
chain: B3 chain
notes: also called B300 cells expressing full-length CARL; not shown: FLAG tag from vector pMX ssFLAG MCS2.2 IRES Puro

binding result [2]: no binding
B5: domain 1-lacking CARL (positions 21 to 29 and 140 to 379) with FLAG tag, expressed on B300 cells (ligand)
chain: QGLPGLTVSPEEPKDLRVRVGDTTQMRCSIQSTEEKRVTKVNWMFSSGSHTEEETVLSYDSNMRSGKFQSLGRFRNRVDLTGDISRNDGSIKLQTVKESDRGIYTCSIYVGKLESRKTIVLHVVQDEFQRTISPTPPTDKGQQGILNGNQLVIIVGIVCATFLLLPVLILIVKKAKWNKSSVSSMASVKSLENKEKINPEKHIYSSITTWETTERGISGESEGTYMTMNPVWPSSPKASSLVRSSVRSK
notes: On cells; also called B300 cells expressing CARL lacking domain 1; not shown: FLAG tag from vector pMX ssFLAG MCS2.2 IRES Puro

binding result [5]: binds
B6: human CARL (human AMICA), full length, expressed on B300 cells (ligand)
chain: LNDLNVSPPELTVHVGDSALMGCVFQSTEDKCIFKIDWTLSPGEHAKDEYVLYYYSNLSVPIGRFQNRVHLMGDILCNDGSLLLQDVQEADQGTYICEIRLKGESQVFKKAVVLHVLPEEPKELMVHVGGLIQMGCVFQSTEVKHVTKVEWIFSGRRAKEEIVFRYYHKLRMSVEYSQSWGHFQNRVNLVGDIFRNDGSIMLQGVRESDGGNYTCSIHLGNLVFKKTIVLHVSPEEPRTLVTPAALRPLVLGGNQLVIIVGIVCATILLLPVLILIVKKTCGNKSSVNSTVLVKNTKKTNPEIKEKPCHFERCEGEKHIYSPIIVREVIEEEEPSEKSEATYMTMHPVWPSLRSDRNNSLEKKSGGGMPKTQQAF
notes: also called human CARL-expressing B300 cells; B300 cells expressing human CARL

Kd [6]: 4.8 nM
B7: CARL-Fc chimeric protein (mouse CARL) (Fc fusion)
chain: QGLPGLTVSSPQLRVHVGESVLMGCVVQRTEEKHVDRVDWLFSKDKDDASEYVLFYYSNLSVPTGRFQNRSHLVGDTFHNDGSLLLQDVQKADEGIYTCEIRLKNESMVMKKPVELWVLPEEPKDLRVRVGDTTQMRCSIQSTEEKRVTKVNWMFSSGSHTEEETVLSYDSNMRSGKFQSLGRFRNRVDLTGDISRNDGSIKLQTVKESDRGIYTCSIYVGKLESRKTIVLHVVQDEFQRTISPTPPTDKGQQGILNGNQL
notes: The making of CARL-Fc is described nowhere; used as culture supernatant; only its extracellular region is in the construct; also called CARL-Fc chimeric proteins; not shown: Fc part: species, isotype and any linker are not described
